System: guanylyl cyclase
Test: Detergent-solubilized membrane (particulate) guanylyl cyclase activity of transfected COS cells
Format: biochemical, human
Conditions: for guanylyl cyclase specific activity, fold higher than control cells: COS-2 cells, membrane fraction; for Guanylyl Cyclase Activity: Table 2, transfected COS-7 cells, mean ± standard deviation of triplicate determinations
Procedure: To examine the biochemical properties of the NPRB receptor, we constructed an expression vector in which the coding sequence was placed under the transcriptional control of the cytomegalovirus immediate-early promoter (Table 2). The vector pRK is disclosed in EP 307,247, published Mar. 15, 1989. The NPRB expression vector was transfected into […] in a transient expression assay and the detergent solubilized guanylyl cyclase activity of a membrane fraction was measured (Table 2). Cells transfected with the NPRB expression vector has about eleven-fold higher guanylyl cyclase specific activity that control cells, while cells transfected with an NPRA receptor expression vector^5 using pRK has a six-fold higher guanylyl cyclase specific activity. Specific binding of [^125 l]-human ANP (ANP) and [^125 l]-porcine BNP (pBNP) to transfected cells was determined in the presence of absence of unlabeled peptides.
COS-7 cells maintained in Dulbecco's modified Eagles' medium (DMEM) supplemented with 10% fetal calf serum were seeded at 5×10^6 cells per 100 mm plate (GC assay) or 1×10^5 per 35 mm plate (binding assay). Twelve house later, cells were transfected with control vector^5 (1 mg/ml) using DEAE-dextran. The vector pRK-NPRBR contained nucleotides 253 to 3470 (FIG. 1) of the NPRB receptor in the expression vector pRK5 under the control of the cytomegalovirus immediate early promoter.
Guanylate cyclase activity was determined forty-eight hours after transfection, the cells were washed with phosphate buffer saline (PBS), scraped into 4 ml PBS and homogenized with 40 strokes of a Dounce homogenizer at 0° C. Nuclei were pelleted and the supernatant was centrifuged at 100,000 xg for 30 minutes in SW 55- Ti rotor to obtain a membrane pellet. Membrane proteins were solubilized by incubation or ice for 10 minutes in solution containing 20 mM Hepes, pH 7.4, 200 mM NaCl, 10% glycerol, 1% Triton X-100 and 1 mM dithiothreitol. Protein concentrations were measured by a dye binding assay (BioRad). Gyanylate cyclase reactions contained […] of membrane proteins in […] of 20 mM Hepes pH 7.4, 30 units of creatine phosphokinase, 1 mM GTP, 4 mM MnCl2 and 0.5 mM isobutyl methylxanthine (IBMX). After incubation at 37° C. for 10 minutes the reaction was stopped by addition of […] of 50 mM acetic acid (pH 6.2) and boiled for 3 min. Aliquots were analyzed for cGMP after acetylation with 1/20 volume of acetic anhydride/triethylamine (1:2) then radioimmuno-assay (Biomedical Technologies, Inc.). Results are expressed in Table 2 as the mean±standard deviation of triplicate determinations.

Molecule: NPRA: 120-140 kd NPRA receptor, a membrane form of guanylyl cyclase
- guanylyl cyclase specific activity, fold higher than control cells: six
- Guanylyl Cyclase Activity: 1.91 ± 0.01 pmole cGMP/min/mg protein

B1: NPRB: human natriuretic peptide receptor B having the sequence of FIG. 1, expressed from pRK vector (protein, UniProt P20594 23-1047, looked up)
Atrial natriuretic peptide …: RNLTLAVVLPEHNLSYAWAWPRVGPAVALAVEALGRALPVDLRFVSSELEGACSEYLAPLSAVDLKLYHDPDLLLGPGCVYPAASVARFASHWRLPLLTAGAVASGFSAKNDHYRTLVRTGPSAPKLGEFVVTLHGHFNWTARAALLYLDARTDDRPHYFTIEGVFEALQGSNLSVQHQVYAREPGGPEQATHFIRANGRIVYICGPLEMLHEILLQAQRENLTNGDYVFFYLDVFGESLRAGPTRATGRPWQDNRTREQAQALREAFQTVLVITYREPPNPEYQEFQNRLLIRAREDFGVELGPSLMNLIAGCFYDGILLYAEVLNETIQEGGTREDGLRIVEKMQGRRYHGVTGLVVMDKNNDRETDFVLWAMGDLDSGDFQPAAHYSGAEKQIWWTGRPIPWVKGAPPSDNPPCAFDLDDPSCDKTPLSTLAIVALGTGITFIMFGVSSFLIFRKLMLEKELASMLWRIRWEELQFGNSERYHKGAGSRLTLSLRGSSYGSLMTAHGKYQIFANTGHFKGNVVAIKHVNKKRIELTRQVLFELKHMRDVQFNHLTRFIGACIDPPNICIVTEYCPRGSLQDILENDSINLDWMFRYSLINDLVKGMAFLHNSIISSHGSLKSSNCVVDSRFVLKITDYGLASFRSTAEPDDSHALYAKKLWTAPELLSGNPLPTTGMQKADVYSFGIILQEIALRSGPFYLEGLDLSPKEIVQKVRNGQRPYFRPSIDRTQLNEELVLLMERCWAQDPAERPDFGQIKGFIRRFNKEGGTSILDNLLLRMEQYANNLEKLVEERTQAYLEEKRKAEALLYQILPHSVAEQLKRGETVQAEAFDSVTIYFSDIVGFTALSAESTPMQVVTLLNDLYTCFDAIIDNFDVYKVETIGDAYMVVSGLPGRNGQRHAPEIARMALALLDAVSSFRIRHRPHDQLRLRIGVHTGPVCAGVVGLKMPRYCLFGDTVNTASRMESNGQALKIHVSSTTKDALDELGCFQLELRGDVEMKGKGKMRTYWLLGERKGPPGLL
- guanylyl cyclase specific activity, fold higher than control cells: about eleven
- Guanylyl Cyclase Activity: 3.50 ± 0.01 pmole cGMP/min/mg protein

— patent publication US5352587A, “Compositions and methods for the synthesis of natriuretic protein receptor B and methods of use” (Genentech, Inc., priority 1991, dated 1994)
